Consider five molecules from patent US20240209086A1 (PETMEDIX, published 2024).

B1: PMX170 (monospecific anti-canine CD3, canine IgG-B effector function deficient Fc) (antibody)
heavy: EVQLVESGGDLVKPGGSLRLSCVASGFTFSSYHMSWVRQAPGKGLQWVAYSNSGGSRTSYADAVKGRFTISRDNAKNTLYLQMSSLRAEDTAVYYCASEGGGGRYGFKDYGMDYWGHGTSLFVSSASTTAPSVFPLAPSCGSTSGSTVALACLVSGYFPEPVTVSWNSGSLTSGVHTFPSVLQSSGLYSLSSMVTVPSSRWPSETFTCNVAHPASKTKVDKPVPKRENGRVPRPPDCPKCPAPESLGGPSVFIFPPKPKDTLLIARTPEVTCVVVDLGREDPEVQISWFVDGKQMQTAKTQPREEQFNGTYRVVSVLPIGHQDWLKGKQFTCKVNHIGLPSPIERTISKARGQAHQPSVYVLPPSREELSKNTVSLTCLIKDFFPPDIDVEWQSNGQQEPESKYRTTPPQLDEDGSYFLYSKLSVDKSRWQRGDTFICAVMHEALHNHYTQKSLSHSPGK
VL: SYVLTQLPSKNVTLKQPAHITCGGDNIGSKSVHWYQQKLGQAPVLIIYYDSSRPTGIPERFSGANSGNTATLTISGALAEDEADYYCQVWDSSAKAWVFGEGTQLTVL
B2: PMX176 (monospecific anti-canine CD3, canine IgG-B effector function deficient Fc) (antibody, V domains shown)
VH: EVQLVESGGDLVKPGGSLRLSCVASGFTFSSYHMSWVRQAPGKGLQWVAYINSAGSTTSYTDAVQGRFTISRDNAKNTLYLQMNSLRAEDTAVYYCASEWIFMPWGQGSLVTVSS
VL: SYVLTQLPSKNVTLKQPAHITCGGDNIGSKSVHWYQQKLGQAPVLIIYYDSSRPTGIPERFSGANSGNTATLTISGALAEDEADYYCQVWDSSAKARVFGEGTQLTVL
B3: PMX179 (monospecific anti-canine CD3, canine IgG-B effector function deficient Fc) (antibody, V domains shown)
VH: ELALQESGPGLVRPSQTLSLTCVVSGGSVTRSYYWNWIRQRPGRGLEWMGYWTGTTIYNPAFQGRISITVDTAKNQFSLHLISMTTEDTAVYYCGREGGSSLGAIAYWGQGTRVTVSS
VL: SYVLTQLPSKNVTLKQPAHITCGGDNIGSKSVHWYQQKLGQAPVLIIYYDSSRPTGIPERFSGANSGNTATLTISGALAEDEADYYCQVWDSSAKAAVFGGGTHLTVL
B4: PMX177 (monospecific anti-canine CD3, canine IgG-B effector function deficient Fc) (antibody, V domains shown)
VH: EVTLQESGPGLVKPSQTLSLTCVVSGGSVTSSFYWNWIRQRPGRGLEWMGYWTGSTNYNPAFQGRISITADTAKNQFSLHLGSMTTDDTAMYYCAREEGSWGRVYFDYWGQGTLVTVSS
VL: SYVLTQLPSKNVTLKQPAHITCGGDNIGSKSVHWYQQKLGQAPVLIIYYDSSRPTGIPERFSGANSGNTATLTISGALAEDEADYYCQVWDSSTKTWVFGEGTQLTVL
B5: PMX171 (monospecific anti-canine CD3, canine IgG-B effector function deficient Fc) (antibody)
heavy: EVQLVESGGDLVKPGGSLRLSCEASGFTFSSYHMSWVRQAPGKGLQWVAYINNGGSGTSYADAVKGRFTISRDNAKNTLYLQMNSLRAEDTAVYFCASEGGGKRYGYKDYGMDYWGHGTSLFVSSASTTAPSVFPLAPSCGSTSGSTVALACLVSGYFPEPVTVSWNSGSLTSGVHTFPSVLQSSGLYSLSSMVTVPSSRWPSETFTCNVAHPASKTKVDKPVPKRENGRVPRPPDCPKCPAPESLGGPSVFIFPPKPKDTLLIARTPEVTCVVVDLGREDPEVQISWFVDGKQMQTAKTQPREEQFNGTYRVVSVLPIGHQDWLKGKQFTCKVNHIGLPSPIERTISKARGQAHQPSVYVLPPSREELSKNTVSLTCLIKDFFPPDIDVEWQSNGQQEPESKYRTTPPQLDEDGSYFLYSKLSVDKSRWQRGDTFICAVMHEALHNHYTQKSLSHSPGK
VL: SYVLTQLPSKNVTLKQPAHITCGGDNIGSKSVHWYQQKLGQAPVLIIYYDSSRPTGIPERFSGANSGNTATLTISGALAEDEADYYCQVWDSSAKAWVFGEGTQLTVL

The target of this test is canine CD3 on canine T cells (canine PBMC) (canine, UniProt P27597 22-202). The test can be described thus: cell-based or functional assay.
Sequence of canine CD3 on canine T cells (canine PBMC) (P27597 22-202 limits assumed, chain 1 of 3): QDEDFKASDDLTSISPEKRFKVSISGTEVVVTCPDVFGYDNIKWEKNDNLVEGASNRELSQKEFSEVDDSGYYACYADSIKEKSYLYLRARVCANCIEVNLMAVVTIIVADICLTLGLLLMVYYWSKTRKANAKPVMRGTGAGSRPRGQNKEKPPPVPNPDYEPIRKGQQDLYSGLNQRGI
Sequence of canine CD3 on canine T cells (canine PBMC) (chain, as listed by the source limits assumed, chain 2 of 3): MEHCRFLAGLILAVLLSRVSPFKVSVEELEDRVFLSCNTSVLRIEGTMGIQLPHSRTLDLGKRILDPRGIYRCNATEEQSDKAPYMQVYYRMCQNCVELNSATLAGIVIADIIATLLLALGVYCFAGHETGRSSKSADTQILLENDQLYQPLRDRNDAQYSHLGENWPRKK
Sequence of canine CD3 on canine T cells (canine PBMC) (chain, as listed by the source limits assumed, chain 3 of 3): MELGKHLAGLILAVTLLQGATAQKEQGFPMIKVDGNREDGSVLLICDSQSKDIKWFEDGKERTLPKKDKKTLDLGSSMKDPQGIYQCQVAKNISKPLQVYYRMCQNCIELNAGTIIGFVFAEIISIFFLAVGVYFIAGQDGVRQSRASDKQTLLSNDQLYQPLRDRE
As to B1, the “CD25 Activation, Day 6, IS” value came out at 9.44; the “CD25 Activation, Day 6, PB” value is 11.8; the “CD25 Activation, Day 9, IS” value was 7.39; the “CD25 Activation, Day 9, PB” value turned out to be 11.3. Besides, the “IFNy Concentration pg/ml, Day 6, IS” value is 71.3 pg/mL; the “IFNy Concentration pg/ml, Day 9, IS” value was 114 pg/mL; the “IFNy Concentration pg/ml, Day 9, PB” value came to 282 pg/mL; the “Ki67 Proliferation, Day 6, IS” value worked out at 1.99. Also, the “Ki67 Proliferation, Day 6, PB” value is 0.27; the “Ki67 Proliferation, Day 9, IS” value is 0.79; the “Ki67 Proliferation, Day 9, PB” value came out at 0.47.

As to B2, the “CD25 Activation, Day 6, IS” value is 10.3; the “CD25 Activation, Day 6, PB” value is 9.61; the “CD25 Activation, Day 9, IS” value came out at 12.3; the “CD25 Activation, Day 9, PB” value is 10.1. For the same molecule, the “IFNy Concentration pg/ml, Day 6, IS” value is 30.3 pg/mL; the “IFNy Concentration pg/ml, Day 9, IS” value is 278 pg/mL; the “IFNy Concentration pg/ml, Day 9, PB” value amounted to 594 pg/mL; the “Ki67 Proliferation, Day 6, IS” value worked out at 0.93. Besides, the “Ki67 Proliferation, Day 6, PB” value worked out at 1.45; the “Ki67 Proliferation, Day 9, IS” value came out at 2.2; the “Ki67 Proliferation, Day 9, PB” value worked out at 0.

Consider B3, for which the “CD25 Activation, Day 6, IS” value turned out to be 8.73; the “CD25 Activation, Day 6, PB” value amounted to 22; the “CD25 Activation, Day 9, IS” value worked out at 10.9; the “CD25 Activation, Day 9, PB” value came out at 22.9. Also, the “IFNy Concentration pg/ml, Day 6, IS” value is 43.4 pg/mL; the “IFNy Concentration pg/ml, Day 9, IS” value worked out at 162 pg/mL; the “IFNy Concentration pg/ml, Day 9, PB” value was 2750 pg/mL; the “Ki67 Proliferation, Day 6, IS” value came out at 1.27. The “Ki67 Proliferation, Day 6, PB” value came to 0.48; the “Ki67 Proliferation, Day 9, IS” value came to 2.06; the “Ki67 Proliferation, Day 9, PB” value turned out to be 0.31.

For B4, the “CD25 Activation, Day 6, IS” value amounted to 8.02; the “CD25 Activation, Day 6, PB” value came out at 12.6; the “CD25 Activation, Day 9, IS” value is 13.7; the “CD25 Activation, Day 9, PB” value was 18.4. The “IFNy Concentration pg/ml, Day 6, IS” value worked out at 28.8 pg/mL; the “IFNy Concentration pg/ml, Day 9, IS” value stood at 763 pg/mL; the “IFNy Concentration pg/ml, Day 9, PB” value is 2210 pg/mL; the “Ki67 Proliferation, Day 6, IS” value is 1.41. For the same molecule, the “Ki67 Proliferation, Day 6, PB” value amounted to 1.37; the “Ki67 Proliferation, Day 9, IS” value was 3.19; the “Ki67 Proliferation, Day 9, PB” value was 0.47.

Consider B5, for which the “CD25 Activation, Day 6, IS” value came out at 11.9; the “CD25 Activation, Day 6, PB” value worked out at 13.7; the “CD25 Activation, Day 9, IS” value stood at 10.4; the “CD25 Activation, Day 9, PB” value was found to be 6.22. The “IFNy Concentration pg/ml, Day 6, IS” value turned out to be 106 pg/mL; the “IFNy Concentration pg/ml, Day 9, IS” value is 146 pg/mL; the “IFNy Concentration pg/ml, Day 9, PB” value was 277 pg/mL; the “Ki67 Proliferation, Day 6, IS” value was determined as 0.98. Moreover, the “Ki67 Proliferation, Day 6, PB” value turned out to be 0.57; the “Ki67 Proliferation, Day 9, IS” value came to 1.91; the “Ki67 Proliferation, Day 9, PB” value was found to be 0.52.
